Entries after “also recorded” stand apart in the source; their conditions may differ.
How the values were obtained:
[1] = tested on: arthritic rats; test: Knee swelling in rats with mBSA antigen-induced arthritis; type: in vivo, rat
Protocol: (§1) Experiments were performed using a rat model for RA as published by Chandruputla et al. (BioMed Int, 2015) to show the effects of recombinant human alkaline phosphatase (hRESCAP) on RA. hRESCAP was compared with MTX used as a positive control. The antigen-induced rat model uses two subcutaneous immunizations with a mixture of methylated bovine serum albumin (mBSA), CFA (complete Freund's adjuvant antigen) and CBP (custom Bordetella pertussis antigen) and intra-articular injections of mBSA on one side knee and saline (negative control) on the counter knee. Immunohistochemical (IHC) analysis specifically focussed on infiltration with macrophages and knee swelling is followed over time after therapeutic treatment with MTX, or hRESCAP.
(§2) In the rat model, RA is induced in the right knee (RA knee), the contralateral left knee serves as a internal control (control knee). The model allows various options for therapeutic interventions, either before intra-articular injections or during boosts injections with mBSA. Two hours prior to AP administration, rats received a dose of levamisole (50 mg/kg, s.c.). For comparison, arthritic rats received treatment with methotrexate (1 mg/kg, i.p.).
(§3) All rats (except healthy) were immunized and arthritis was induced via 1× or 4× intra-articular (i.a) mBSA injections, 4 or 5 days apart in the arthritic (right) knee, the contralateral (left, non-arthritic) knee serving as control knee. For therapeutic interventions, AP (human recombinant placenta AP, TNO, Zeist, The Netherlands) was administered subcutaneously (s.c.) at a dose of 700 U/kg (≈200 μg), MTX (VU University Medical Centers' Pharmacy) was administered intra-peritoneal (i.p.) at two dosages: 0.3 mg/kg (low dose) and 1.0 mg/kg (high dose). The rats were divided in 8 groups, based on different treatments and treatment schedules. In a prophylactic setting, two rats received AP twice prior to intra-articular (i.a.) arthritis induction and four rats received AP twice prior to intra-articular and 4× PBS in between i.a. injections. In the treatment groups, arthritic rats were administered AP twice or 4× after arthritis induction, either as standalone therapy or in combination with low or high dose MTX. Control rats received 500 μL of PBS (i.p.). […] At the end of study, all rats were sacrificed and tissues were excised for further processing and various analyses.

[2] = tested on: macrophages; test: [^18F]fluoro-PEG-folate macrophage PET-CT imaging of arthritic knees; type: in vivo; details: PET scan at day 40; one rat per group
From the text: The macrophage PET tracer [^18F]fluoro-PEG-folate was synthesized, with a radiochemical purity of >96.5% and mean specific activity of 27.6±3.5 GBq/μmol. Untreated and 4× AP-treated arthritic were anesthetized using inhalation anaesthetics (isoflurane 2-2.5% and oxygen […]). The tail vein was cannulated with a poly-urethane 3 French cannula (0.7 mm×19 mm, BD Angiocath, Breda, The Netherlands). During PET-CT (Mediso nanoPET-CT, Budapest, Hungary) rats were place in an integrated heating bed (˜35° C.) while monitoring respiratory function. Computed tomography (CT) scan was performed for 5 min, followed by tracer administration (10.7±1.8 MBq) at the start of a dynamic PET scan of 60 min. PET data were normalized, and corrected for scatter, randoms, attenuation, decay and dead time. The list mode PET data were rebinned in 19 successive frames (4×5, 4×10, 2×30, 3×60, 2×300, 3×600 and 1×900 s), which were reconstructed using an iterative 3D Poisson ordered-subsets expectation-maximization algorithm with 4 iterations and 6 subsets. […] The CT and PET images were superimposed for drawing the regions of interest (ROI). […] TACs were expressed as standardized uptake values (SUV), i.e. mean ROI radioactivity concentration normalized to injected dose and body weight.

[3] = Tolerability of therapeutic interventions in arthritic rats; type: in vivo
Protocol: as §3

[4] = tested on: ED1+ and ED2+ synovial macrophages; test: Synovial macrophage infiltration (ED1/ED2 immunohistochemistry) in knees of rats with mBSA antigen-induced arthritis; type: in vivo, rat
Protocol: as §1, §2
At the end of the experiment, rats were sacrificed and knees were decalcified and processed for IHC analysis of synovial macrophage infiltration, including 2 rat macrophage antibodies; ED1 (homolog of human CD68) and ED2 (homolog of human CD163, a proposed marker for human M2 anti-inflammatory macrophages). IHC analysis of ED1 and ED2 macrophages was performed in multiple quadrants of synovial tissue, as described by Chandruputla et al (BioMed Int, 2015). Macrophage counting included synovial lining layer (SL 1-10) and synovial sublining layers (SL 1-20).
as §3
The arthritic and contralateral knees from all rats were dissected in toto and fixed for 7 days at 4° C. in 10% freshly made paraformaldehyde in PBS with 2% sucrose (pH=7.3) prior to decalcification in osteosoft (101728, Merck, Germany) for ˜2.5 weeks at room temperature. Thereafter, knees were embedded in paraffin. Sections of 5 μm were cut through the centre of the joint in longitudinal direction and stained with haematoxylin and eosin (HE) to assess the degree of inflammation in synovial tissue. Liver and spleen sections from all rats were dissected and fixed in 4% paraformaldehyde for 24 h before embedding in paraffin. Sections of 5 μm were cut and stained initially with HE and then for macrophages Staining for macrophages with ED1 (homologous to human CD68), and ED2 (homologous to human CD163, a marker for M2 anti-inflammatory macrophages), or isotype control antibody was performed. Images were captured using a Leica 4000B microscope and Leica digital camera DC500 (Microsystems B. V. Rijswijk, The Netherlands). […]

[5] = 2× AP administration followed by 4× PBS, p<0.01
[6] = prophylactic AP treatment, 2× AP before intra-articular antigen injection
[7] = prophylactic: 2× AP (700 U/kg) prior to intra-articular mBSA injection, p<0.01

B1: AP: human recombinant placenta alkaline phosphatase (hRESCAP; TNO, Zeist), an ectophosphatase (protein, UniProt P05187 23-506, looked up)
Alkaline phosphatase, …: IIPVEEENPDFWNREAAEALGAAKKLQPAQTAAKNLIIFLGDGMGVSTVTAARILKGQKKDKLGPEIPLAMDRFPYVALSKTYNVDKHVPDSGATATAYLCGVKGNFQTIGLSAAARFNQCNTTRGNEVISVMNRAKKAGKSVGVVTTTRVQHASPAGTYAHTVNRNWYSDADVPASARQEGCQDIATQLISNMDIDVILGGGRKYMFRMGTPDPEYPDDYSQGGTRLDGKNLVQEWLAKRQGARYVWNRTELMQASLDPSVTHLMGLFEPGDMKYEIHRDSTLDPSLMEMTEAALRLLSRNPRGFFLFVEGGRIDHGHHESRAYRALTETIMFDDAIERAGQLTSEEDTLSLVTADHSHVFSFGGYPLRGSSIFGLAPGKARDRKAYTVLLYGNGPGYVLKDGARPDVTESESGSPEYRQQSAVPLDEETHAGEDVAVFARGPQAHLVHGVQEQTFIAHVMAFAACLEPYTACDLAPPAGTTD
swelling of the mBSA-injected right knee ([1]; prophylactic and therapeutic AP treatment or MTX treatment, versus positive control): Reduced swelling
swelling of the non-treated left knee ([1]; versus positive control treatment): swelling is reduced
increased [^18F]fluoro-PEG-folate uptake (SUV) in arthritic knee of the untreated rat compared to the 4× AP-treated rat [2]: 1.5 fold
changes in body weight [3]: nor were significant changes in the body weight observed
tolerability / adverse effects ([3]; AP 700 U/kg, MTX 0.3 or 1.0 mg/kg): well tolerated
reduction of synovial ED1+ macrophage infiltration in arthritic knees [4, 5]: 2 fold
reduction of synovial ED2+ macrophage infiltration in arthritic knees [4, 5]: 3 fold
ED1+ synovial macrophage infiltration in arthritic knee (in words) [4, 6]: mild infiltration; also recorded: very much reduced; also recorded: markedly reduced infiltration
ED2+ synovial macrophages in arthritic knee (in words) [4, 6]: do not show this activity; also recorded: markedly reduced infiltration
lower quantification of ED1+ macrophages in arthritic knees compared to untreated rats (1× i.a.) [4, 7]: 4 fold
lower quantification of ED2+ macrophages in arthritic knees compared to untreated rats (1× i.a.) [4, 7]: 8 fold
further reduction of ED1+ and ED2+ macrophage counts in arthritic knees ([4]; therapeutic setting, 4× AP administration): ~8 fold
ED2+ synovial macrophages in arthritic knee (in words) ([4]; therapeutic treatment, 4× AP after first i.a. and in between boosts): much reduced
ED1+ synovial macrophage infiltration in arthritic knee (in words) ([4]; therapeutic treatment, 4× after first i.a. and in between boosts, AP 700 U/kg, MTX 1 mg/kg): reduces ED1+ infiltration; also recorded: very much reduced

— patent US11103562B2, “Composition comprising alkaline phosphatase for use in the treatment of arthritides” (AMRIF BV, priority 2017, dated 2021)
